Experimental data: IntAct's records for PubMed 10613896

B1: Arf-GAP domain and FG repeat-containing protein 1 (Homo sapiens), P52594 (parent)
chain: MAASAKRKQEEKHLKMLRDMTGLPHNRKCFDCDQRGPTYVNMTVGSFVCTSCSGSLRGLNPPHRVKSISMTTFTQQEIEFLQKHGNEVCKQIWLGLFDDRSSAIPDFRDPQKVKEFLQEKYEKKRWYVPPEQAKVVASVHASISGSSASSTSSTPEVKPLKSLLGDSAPTLHLNKGTPSQSPVVGRSQGQQQEKKQFDLLSDLGSDIFAAPAPQSTATANFANFAHFNSHAAQNSANADFANFDAFGQSSGSSNFGGFPTASHSPFQPQTTGGSAASVNANFAHFDNFPKSSSADFGTFNTSQSHQTASAVSKVSTNKAGLQTADKYAALANLDNIFSAGQGGDQGSGFGTTGKAPVGSVVSVPSQSSASSDKYAALAELDSVFSSAATSSNAYTSTSNASSNVFGTVPVVASAQTQPASSSVPAPFGATPSTNPFVAAAGPSVASSTNPFQTNARGATAATFGTASMSMPTGFGTPAPYSLPTSFSGSFQQPAFPAQAAFPQQTAFSQQPNGAGFAAFGQTKPVVTPFGQVAAAGVSSNPFMTGAPTGQFPTGSSSTNPFL
partner: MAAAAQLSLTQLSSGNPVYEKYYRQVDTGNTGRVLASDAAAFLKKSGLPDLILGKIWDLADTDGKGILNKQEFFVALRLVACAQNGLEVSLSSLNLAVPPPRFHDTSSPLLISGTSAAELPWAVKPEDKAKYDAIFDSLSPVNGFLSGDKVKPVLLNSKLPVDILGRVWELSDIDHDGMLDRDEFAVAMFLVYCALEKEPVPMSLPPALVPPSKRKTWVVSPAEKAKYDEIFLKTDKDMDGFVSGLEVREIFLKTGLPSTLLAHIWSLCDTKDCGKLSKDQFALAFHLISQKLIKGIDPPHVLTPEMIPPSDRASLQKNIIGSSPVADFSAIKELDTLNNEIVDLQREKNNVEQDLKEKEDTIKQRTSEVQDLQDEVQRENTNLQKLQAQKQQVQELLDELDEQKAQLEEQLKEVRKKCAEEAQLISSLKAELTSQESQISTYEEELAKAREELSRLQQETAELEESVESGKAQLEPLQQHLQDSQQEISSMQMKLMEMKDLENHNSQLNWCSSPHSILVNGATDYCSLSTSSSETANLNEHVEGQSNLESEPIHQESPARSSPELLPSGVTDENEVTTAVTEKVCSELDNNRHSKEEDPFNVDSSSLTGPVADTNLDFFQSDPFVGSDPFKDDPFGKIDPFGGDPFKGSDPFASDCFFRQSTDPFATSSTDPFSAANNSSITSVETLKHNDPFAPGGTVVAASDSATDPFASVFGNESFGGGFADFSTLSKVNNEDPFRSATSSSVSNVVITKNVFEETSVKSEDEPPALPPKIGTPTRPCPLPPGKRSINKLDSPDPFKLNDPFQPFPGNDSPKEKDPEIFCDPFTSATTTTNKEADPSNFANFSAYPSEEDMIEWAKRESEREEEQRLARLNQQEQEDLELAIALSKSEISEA

Variants of: B1
Details: with eps15_human EPS15, P42566

Row | Variant | effect of a mutation on the interaction
1 | MAASAKRKQEEKHLKMLRDMTGLPHNRKCFDCDQRGPTYVNMTVGSFVCTSCSGSLRGLNPPHRVKSISMTTFTQQEIEFLQKHGNEVCKQIWLGLFDDRSSAIPDFRDPQKVKEFLQEKYEKKRWYVPPEQAKVVASVHASISGSSASSTSSTPEVKPLKSLLGDSAPTLHLNKGTPSQSPVVGRSQGQQQEKKQFDLLSDLGSDIFAAPAPQSTATANFANFAHFNSHAAQNSANADFANFDAFGQSSGSSNFGGFPTASHSPFQPQTTGGSAASVNANFAHFDNFPKSSSADFGTFNTSQSHQTASAVSKVSTNKAGLQTADKYAALANLDNIFSAGQGGDQGSGFGTTGKAPVGSVVSVPSQSSASSDKYAALAELDSVFSSAATSSNAYTSTSNASSNVFGTVPVVASAQTQPASSSVPAPFGATPSTNPVVAAAGPSVASSTNPVQTNARGATAATFGTASMSMPTGFGTPAPYSLPTSFSGSFQQPAFPAQAAFPQQTAFSQQPNGAGFAAFGQTKPVVTPFGQVAAAGVSSNPVMTGAPTGQFPTGSSSTNPVL [F436V;F451V;F542V;F561V] | disrupting interaction
